Assay [1] addresses T1, Cynomolgus CD3 (Cynomolgus, UniProt Q95LI5 22-198; Q95LI7 23-181; Q95LI8 22-171).
T1 construct: whole, on cells; also called CD3 on Cynomolgus PBMCs; CD3 on HSC-F Cynomolgus T cell line
As to the kind of experiment: apparent KD (KDapp), flow cytometry titration on fresh cynomolgus PBMCs. Here is the method:
To characterize potential cross-reactivity of the anti-human CD3 mAbs to NHP T cells, dose response flow cytometry titration studies were performed on both freshly obtained Cynomolgus PBMCs (Comparative Medicine and Animal Resources Centre—McGill University) or the Cynomolgus derived T cell line, HSC-F (Non-Human Primate Reagent Resource—NIH). Binding studies on fresh Cynomolgus PBMCs was performed on a subset of anti-CD3 mAbs (FIG. 4) whereas the Herpesvirus saimiri immortalized Cynomolgus T cell line HSC-F was employed for further evaluations (FIGS. 5A to 5C). KDapp values were calculated using a non-linear regression model of one-site binding with Hill slope (GraphPad Prism) and tabulated (Table 3b). Similar KDapp values for anti-CD3 mAb 1E2 obtained from binding to fresh Cynomolgus PBMCs (KDapp=0.28 nM) or the HSC-F T cell line (KDapp=0.39 nM) indicated the HSC-F cell line was a suitable surrogate for ex vivo NHP T cells.
Cynomolgus PBMCs were obtained from fresh ex vivo peripheral blood via density centrifugation and cultured overnight at 37° C./5% CO₂ in the presence of human recombinant IL2 (20 IU/mL; Novartis). Starting from 100 nM, graded doses of the anti-CD3 mAbs were incubated with 100K NHP PBMCs for 0.5 hours at 4° C. in flow staining buffer (SB; PBS/1% BSA/0.01% NaN3) in 96 w V-bottom plates. Following plate washing with SB (150 μL), cell pellets were resuspended in a 5 µg/mL solution of goat (Fab′)₂ anti-mouse IgG (H+L)− APC secondary antibody in SB, incubated at 4° C. (30 min.), washed 1× with SB, and resuspended for flow analysis. The commercial NHP cross-reactive SP34.2 anti-CD3 mAb (BD Biosciences), anti-human OKT-3 IgG2a (Biolegend—data not shown) and non-specific mIgG were employed as controls. 20K live events were acquired on a BD LSRFortessa flow analyzer and mean fluorescence intensities (MFI) calculated after subtraction of secondary antibody alone values. Using GraphPad Prism software, the data were analyzed using a one site specific binding with Hill slope non-linear regression model to calculate KDapp and BMax values (See Table 2).

For assay [2], the target named is T1, Cynomolgus CD3. As to the kind of experiment: apparent KD (KDapp), flow cytometry titration on cynomolgus HSC-F T cell line. An outline of the steps: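 HSC-F cells (Herpesvirus saimiri-immortalized, cultured with 40 IU/mL human IL2), 100K/well, incubated with graded anti-CD3 mAb doses from 100 nM, 2 h, 4 °C; detected with APC anti-mouse IgG (5 μg/mL, 30 min, 4 °C). Background-subtracted MFI fitted by one-site binding with Hill slope for KDapp.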

Assay [3] deals with T1, Cynomolgus CD3. As to the kind of experiment: apparent KD (KDapp), flow cytometry titration on fresh cynomolgus PBMCs; second value in brackets, not explained.

T1 sequence (Q95LI5 22-198, chain 1 of 3): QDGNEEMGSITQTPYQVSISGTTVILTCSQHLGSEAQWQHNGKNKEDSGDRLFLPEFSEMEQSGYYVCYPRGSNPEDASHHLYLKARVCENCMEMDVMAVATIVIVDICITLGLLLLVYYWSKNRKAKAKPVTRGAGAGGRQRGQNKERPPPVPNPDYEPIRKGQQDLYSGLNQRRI
T1 sequence (Q95LI7 23-181, chain 2 of 3): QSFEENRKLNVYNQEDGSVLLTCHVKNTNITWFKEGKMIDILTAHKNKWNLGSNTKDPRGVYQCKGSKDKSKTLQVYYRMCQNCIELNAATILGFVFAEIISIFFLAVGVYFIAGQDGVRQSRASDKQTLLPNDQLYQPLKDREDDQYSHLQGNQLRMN
T1 sequence (Q95LI8 22-171, chain 3 of 3): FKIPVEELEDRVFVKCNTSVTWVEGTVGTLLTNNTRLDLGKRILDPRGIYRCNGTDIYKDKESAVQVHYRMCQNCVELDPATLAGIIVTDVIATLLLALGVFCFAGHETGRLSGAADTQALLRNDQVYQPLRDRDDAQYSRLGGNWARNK

B1: F282-2D5 (antibody, V domains shown)
VH: QVQLQQPGTELVKPGASVKLSCKASGYTFTSYWMHWVKQRPGQGLEWIGNINPSNGGTNYNENFKTKATLTVDKSSSTAYMQLSSLTSEDSAVYYCARDRSGQYYFDYWGQGTTLTVSS
VL: DIVMSQSPSSLAVSAGEKVTMSCKSSQSLLNSRTRKNYLAWYQQKPGQSPKLLIYWASTRESGVPDRFTGSGSGTDFTLTISSVQAEDLAVYYCIQSYHLRTFGGGTILEIK
notes: also called F282-2D5-2
As for B1, the Kd with Cynomolgus CD3 [1] is 0.11 nM.

B2: F332-7C9 (antibody, mouse IgG2a, V domains shown)
VH: QVQLQQSGPELVKPGASVRISCKASGYTFTSHYLHWVKQRPGQGFEWIGWIYPGDGNTRYNEKFKDRATLTADKSSSTAYLHLSSLTSEDSAVYFCARDAGYYFDYWGQGTTLAVSS
VL: DIVMSQSPSSLAVSAGEKVTMSCKSSQSLLNSRTRKNYLAWYQQKPGQSLKVLIYWASTRESGVPDRFTGSGSGTDFTLTISSVQAEDLAVYYCKQSYSLRTFGGGTKLEIK
notes: also called F332-7C9-2; F332-7C9 (5C7, 7D10)
In the case of B2, the Kd in the assay with Cynomolgus CD3 [2] was determined as 0.36 nM.

B3: F332-7C5 (antibody, mouse IgG2a, V domains shown)
VH: QVQLQQPGAELGKPGTSVKLSCKASGYTFTSYWMHWVKQRPGQGLEWIGNINPSSGITNYNERFKNKATLTVDKSSTTAYMQLSILTSEDSAVYYCSRDISGQYYFNFWGQGTTLTVSS
VL: DIVMSQSPSSLAVSAGEKVTMSCKSSQSLLNSRTRKNYLAWYQQKPGQSPKLLIYWASTRESGVPDRFTGTGSGTDFTLTISSVQAEDLAVYYCKQSYNLRTFGGGTKLEIK
notes: also called F332-7C5-2; F332-7C5 (5E12, 10A8)
Consider B3, for which the Kd in the assay with Cynomolgus CD3 [2] is 0.37 nM.

B4: F332-6D7 (antibody, mouse IgG2a, V domains shown)
VH: QVQLQQPGAELGKPGTSVNLSCKASGYTFTSYWMHWVKQRPGQGLDWIGNINPNSGTTNYNEKFKSKATLTVDKSSSTAYMQLSTLTSEDSAVYYCTRDISGQYYFDYWGQGTSLTVSS
VL: DIVMSQSPSSLAVSAGEKVTMSCKSSQSLLNSRTRKNYLAWYQQKPGQSPKLLIYWASTRESGVPDRFTGSGSGTDFTLTISSVQAEDLAVYYCKQSYSLRTFGGGSKLEIK
notes: also called F332-6D7-2; F332-6D7 (7G4)
For B4, in the assay with Cynomolgus CD3 [2], the Kd worked out at 0.27 nM.

B5: F332-1C9 (antibody, mouse IgG2a, V domains shown)
VH: QVQLQQPGAELGKPGTSVNLSCKASGYTFTSYWMHWVKQRPGQGLDWIGNINPNSGTTNYNEKFKSKATLTVDKSSSTAYMQLSTLTSEDSAVYYCTRDISGQYYFDYWGQGTSLTVSS
VL: DIVMSQSPSSLAVSAGEKVTMSCKSSQSLLNSRTRKNYLAWYQQKPGQSPKLLIYWASTRESGVPDRFTGSGSGTDFTLIISSVQAEDLAVYYCKQSYSLRTFGGGTKLEIK
notes: Sister clones 1A10, 5H8, 8B11 share the same entries; also called F332-1C9-2; F332-1C9 (1A10, 5H8, 8B11)
B5: the Kd in the assay with Cynomolgus CD3 [1] turned out to be 0.25 nM; with Cynomolgus CD3 [3], 0.26 nM.

B6: F332-3E9 (antibody, mouse IgG2a, V domains shown)
VH: QVQLQQPGAELGKPGTSVKLSCKASGYTFTSYWIHWLKQRPGQGLEWIGNINPNGGSINCNEKFTTKATLTIDKSSSTAYMQLSTLTSEDFAVYYCTRDTSGQYYFDYWGQGTTLTVSS
VL: DIMMSQSPSSLAVSAGEKVTMSCKSSQSLLNSRTRKNYLAWYQQKPGQSPKLLIYWASTRESGVPDRFTGSGSGTDFTLTISSVQAEDLAVYYCTQSYHLRTFGGGTKLEIK
notes: also called F332-3E9-2; F332-3E9 (12G4)
For B6, in the assay with Cynomolgus CD3 [1], the Kd was found to be 0.21 nM.

B7: F332-4D6 (antibody, mouse IgG2a, V domains shown)
VH: QVQLQQSGAELGKPGTSVKLSCKASGYTFTSYWIHWVKQRPGQGLEWIGNINPNSGSTNYNEKFKRKATLTADKSSSTAYMQLSTLTSEDFAVYYCTRDTSGQYYFDYWGQGTTLTVSS
VL: DIVMSQSPSSLAVSAGEKVTMSCKSSQSLLNSRTRKNYLAWYQQKPGQSPKVLIYWASTRESGVPDRFTGSGSGTDFTLTISSVQAEDLAVYYCKQSYHLRTFGGGTKLEIK
notes: also called F332-4D6-2; F322-4D6
For the molecule B7, the Kd with Cynomolgus CD3 [1] is 0.15 nM.

B8: F332-5F2 (antibody, mouse IgG2b, V domains shown)
VH: QVQLQQPGAELGKPGTSVKLSCKASGYTFTSYWMHWVKQRPGQGLEWIGNINPNGGDSNYNEKFKSKATLTVDKSSSTAYMQLSTLTSEDSAVYYCTRDISGQYYFDFWGQGTSLTVFS
VL: DILMSQSPSSLAVSAGEQVTMSCKSSQSLLNSRTRKNYLAWYQQKPGQSPKLLIFWASTRKSGVPDRFTGSGSGTYFTLTISSVQAEDLAVYYCTQSYNLRTFGGGTKLEIK
notes: also called F332-5F2-2; F332-5F2 (6G8, 13A3)
Take B8: the Kd with Cynomolgus CD3 [2] stood at 0.4 nM.

B9: F332-1E2 (antibody, mouse IgG2a, V domains shown)
VH: QVQLQQPGAELGKPGTSVKLSCKASGYTFTSYWIHWVKQRPGQGLEWVGNINPNSGSINYNEKFKNKATLTVDKSSSTAYMQLSTLTSEDFAVYYCTRDTSGQYYFDYWGQGTTLTVSS
VL: DIVMSQSPSSLAVSAGERVTMSCKSSQSLLNSRTRKNYLAWYQQKPGQSPKLLIYWASTRESGVPDRFTGSGSGTDFTLTISSVQAEDLAVYYCIQSYHLRTFGGGTKLEIK
notes: Sister clone 8C5 shares the same entries; also called F332-1E2-2; F332-1E2 (8C5)
For the molecule B9, the Kd was 0.28 nM with Cynomolgus CD3 [1] and 0.39 nM with Cynomolgus CD3 [2].

The values are drawn from patent US20250051443A1 (NATIONAL RESEARCH COUNCIL OF CANADA, published 2025).
